Test results published in the supplement of paper PMC9170038.

Tested on: MS2 coat protein
Assay: apparent KD of MS2 coat protein; higher = weaker reporter binding
Conditions: Eterna round: R107; input ligand: arginine 13.2 mM
In short: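 Designed RNA switches were transcribed on-chip from Illumina sequencing clusters and titrated with SNAP-549-labelled MS2 coat protein in twofold steps from 0.7 or 1.5 nM up to 3 µM. Each step lasted 0.8–1.5 h at first and 10–20 min by the end, in 100 mM Tris-HCl pH 7.5, 80 mM KCl and 4 mM MgCl2, without or with constant ligand. Apparent KD is the median, for each design, of fits to normalised cluster binding curves.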

Sequence	apparent KD of MS2 coat protein
UUGCUCUCUUCGGCCGCCACUACACGCGAGUUGACGACUGGCGGACAUGAGGAUCACCCAUGUCAUAGGACCGGGAAUCACGCUG [theeternabot_sameState_MS2_Trp_B_11]	11.5 nM
GGGUACAUCGCGGCCGCCACUCAUGUAAAUGCGUGAGGAUCACCCAUGCCGAUGGAGACAUCGGAGAGGACCGGGUGAUGUACCG	27.9 nM
AAAGGAAGGUAAAAUAAAACUACAUGUGAAGGAGCGCCCGAAAGGGCAGGUAGGUCGCACAUGAGGAUCACCCAUGUCCUUCCAA [ArgEX 6 #SwitchBubble]	206 nM
ACAUGAGGAUCACCCAUGUACAUCACCCGACGAGGACCGGUACGGCCGCCACUCGGGUAUAUAUAUACAUCGGGUGAUUUUGCAU [#21 Tryptophan A Same State]	27.4 nM
GGUACAUGAGGAUCACCCAUGUAUUGGUACCGAGGACCGGUACGGCCGCCACUCGCAUGACAUGAGGAUCACCCAUGUGAAACCU [SSTA DOUBLE!!! :-D #12]	29.3 nM
CUCGGGUUAUCAGAUACCAGACUAAAAUUUACAUGAGGAUCACCCAUGUAAUGGGUGAUAGUCCCUUGGCAGCUGUUAUGUUUAA [JR_ExcTheophyB_Sub001]	65 nM
AUACAUGAGGAUCACCCAUGUAAAGUUGAAGGAGCGACCAGAGGGUCAGGUAGGUCGCAACACAUGAGGAUCACCCAUGUAUCGA [DOUBLE!!! :-D #6]	53.3 nM
UACAUGAGGAUCACCCAUGUCUGAACUGAAGGAGCGCUAAACAAGGCAGGUAGGUCGCGGAAUUUUGUGUGCAUAUGCAUAUGGG [9.K]	23.6 nM
AUUAUAGUUUAUAAGGAAAUUGAAACAGAAGGAGCGUGAGUAAUCACAGGUAGGUCGCUGGUAGUACAUGAGGAUCACCCAUGUU [JR_Nu_SSArginiA_Sub019]	21.9 nM
AGCGCGGUGAUGGUAGCCGGACGCUAGGUACGAGGACCGGUACGGCCGCCACUCGGAGUCCUACGACAUGAGGAUCACCCAUGUA [Same State Trp A GF16]	61.2 nM
UGUACCAUGUCGGCCGCCACUCAUGAUAAGCAUGAGGAUCACCCAUGUAGCGUCAAAGACGCUAUGAGGACCGGGACAUGGUACU [TryBS Zipper 2]	34.3 nM
AAUAUAUAGACGGCCGCCACUGGAACCAAUACAUGAGGAUCACCCAUGUGAAAAGGAUAGGUUCACAGGACCGGGUCUUCAUGUA [SS Tryp B Tesla 1.3]	40.5 nM
GAUUAAACAUGAGGAUCACCCAUGUAUAUACGAGGACCGGUACGGCCGCCACUCGAAAACGAGUAUCCUCGAAUAAACAUGAUAA [AK 2 SS Trypt (A)]	27.7 nM
UGAGGGACCAGAAGGAGCGACAUGAGGAUCACCCAUGUCUCCCGUUAUGGGAGUUCUUUAGGUCAGGUAGGUCGCUGGUCCCUCA [#1 Exclusion - Arginine B Attempt #7 (Inspired by Omei)]	25.6 nM
UGGUACAUGGCGGCCGCCACUUCACGUAAAAUAAAAACGUGAGGAUCACCCACGUAAUAAGUUGGGAGGACCGGGUCAUGUACCU	122 nM
ACGACAUGAGGAUCACCCAUGUAAGGUGAUACCAGACGAAGUAAUGUCCCUUGGCAGCACAAGCAUAGUUGCGAUUAUUGUACGA [JR_SSTheophyA_Sub006]	124 nM
UCGCGAGAGGGAAGGAGCGUCAGCUGAGUCACAUGAGGAUCACCCAUGUCGCACAUAGUGUGACAGGUAGGUCGCCCUCCGCCCU [Leinticees]	99.6 nM
AUAACAUGAGGAUCACCCAUGUAGAGUGAUACCAGACUAUGUAAUGUCCCUUGGCAGCACAAGUAAAGUUAUAAAUAAUGAUAGA [JR_SSTheophyA_Sub001]	89.3 nM

Sequence	apparent KD of MS2 coat protein
GAAGGAGUUAUGGGUACUCCUUCACUGGAAGGAGCGAGCGAAAGCUCAGGUAGGUCGCCAGAAACAUGAGGAUCACCCAUGUAAU [(A)''-(M)'-(A)'-(Arg1)-(Arg2)-(M1)-(M2)_Design6]	30.3 nM
UUUAAGAACCGAAGGAGCGCCAGAAAUAAGAACGCUACAUGAGGAUCACCCAUGUAAUAAGGGCAGGUAGGUCGCGGAAUUUAAA [last]	17.9 nM
UAGUACAUGAGGAUCACCCAUGUCGGAGGUCGAGGACCGGUACGGCCGCCACUCGGUCAUGCCCUACGAUACGACAGGAAUCUGU [theeternabot_sameState_MS2_Trp_A_28]	21.8 nM
UCUUGAGUUUCGGAUACCAGUGAUGUCGAUACAUGAGGAUCACCCAUGUUAGAGGAUGUACACCCUUGGCAGCCGGGUGUGGCGG [wswmullin]	25.1 nM
GGCCAGGCAGCGGCCGCCACUUAGUGGGCCGAAUGUCCUUUGCUGAACAUGAGGAUCACCCAUGUAAGGACCGGGCUGUUCCGCA [theeternabot_exclusion_MS2_Trp_B_30]	27.4 nM
UGUACUAUGUGAAGGAGCGAGAAGGAGCGAACAUGAGGAUCACCCAUGUACAGGUAGGUCGCUCAGGUAGGUCGCACAUAGUACU [ArgBS - Double aptamer]	13.2 nM
ACAUCUUGUACGGCCGCCACUAACAGAUUCAGCGUCGGAGCCAACUACAUGAGGAUCACCCAUGUUAGGACCGGGUACUGUCCAC [theeternabot_exclusion_MS2_Trp_B_47]	15.8 nM
UUCUACAUGAGGAUCACCCAUGUGGGUGAUACCAGCACUUUUUGGUGCCCUUGGCAGCACAUGAGAAUACCGUACGAUCGGUGAU [Isbiti]	103 nM
AUAACAUGAGGAUCACCCAUGUAAGCAGAUACCAGCUAGGAAACUAGCCCUUGGCAGCUGCAAUCAUGGGUGUGGUAUCUGCUAA [(M1)-(M2)-(T1)-(T2)-(M)'-(T)'_Design5]	21.5 nM
ACACAUGAGGAUCACCCAUGUGCCCAUGAAGGAGCGUGGGAAACCACAGGUAGGUCGCAUGACAUGAGGAUCACCCAUGUUUAUU [Astarte]	29 nM
ACACAAUACAUGAGGAUCACCCAUGUAAAACGAGGACCGGUACGGCCGCCACUCGAAUACUGUAAUCCUCGGAAUAUUAAGUGAA [JR_ExcTryptA_Sub002]	28.7 nM
AGCCACUCGAGUGAUCCUCACGAGUGGCUACGAGGACCGGUACGGCCGCCACUCGAAUUAACAUGAGGAUCACCCAUGUAAUCUA [Brourdmod07]	22.5 nM
UUAGAUAUGACAGAUACCAGCGUGUUGUAGAACAUGAGGAUCACCCAUGUAGUGAUCGUGCGCCCUUGGCAGCUGGUAUGUUUGG [7.W]	148 nM
AAUCAUGAAAACAUGACAUGAGGAUCACUCCGAGGACCGGUACGGCCGCCACUCGCGAGGAGGCGGACAUGAGGAUCACCCAUGU [#02 Tryptophan A Same State]	49.2 nM
CCAUGGUUGACGGCCGCCACUCAUUAGUCUUUGAGGUUGGCACAUGAGGAUCACCCAUGUCUGCAGAGGACCGGGUCUCGCCACA [theeternabot_sameState_MS2_Trp_B_15]	39.8 nM
CUGCCAUGCAGAGAUACCAGUGCGCUCAGCACAUGAGGAUCACCCAUGUUGGCUGCCGAUCACCCUUGGCAGCUCUGCAUGGCAG [#04 Same State - Theophylline B]	10.9 nM
CCAUAAGUACCGGUCCUCAGAUCCUCAUGACGAGGACCGGUACGGCCGCCACUCGAAACAUGAGGAUCACCCAUGUAAUAAUAUC [Brourdmod17]	25.5 nM
GCAUGCGAUACCGAUACCAGCUACUCCAUGGCGCUCCACAUGAGGAUCACCCAUGUAAAUAGCCCUUGGCAGCGGUAUUGAGAUG [Anrabegema]	16.4 nM
